We go through eleven molecules from patent US20240115706A1.

Changes are numbered by the printed parent chain.

Assay [1] has as its target mouse GUCY2C-rCD4 fusion protein (Mus musculus (house mouse); Rattus norvegicus). Description: ELISA (DELFIA), antigen on streptavidin plate, scFv culture solution, Eu-anti-tag Ab.
In assay [2] the target is monkey GUCY2C-rCD4 fusion protein (Macaca fascicularis (crab-eating macaque); Rattus norvegicus). Described as above.
Sequence of monkey GUCY2C-rCD4 fusion protein (Macaca fascicularis (crab-eating macaque); Rattus norvegicus) (chain, as listed by the source limits assumed): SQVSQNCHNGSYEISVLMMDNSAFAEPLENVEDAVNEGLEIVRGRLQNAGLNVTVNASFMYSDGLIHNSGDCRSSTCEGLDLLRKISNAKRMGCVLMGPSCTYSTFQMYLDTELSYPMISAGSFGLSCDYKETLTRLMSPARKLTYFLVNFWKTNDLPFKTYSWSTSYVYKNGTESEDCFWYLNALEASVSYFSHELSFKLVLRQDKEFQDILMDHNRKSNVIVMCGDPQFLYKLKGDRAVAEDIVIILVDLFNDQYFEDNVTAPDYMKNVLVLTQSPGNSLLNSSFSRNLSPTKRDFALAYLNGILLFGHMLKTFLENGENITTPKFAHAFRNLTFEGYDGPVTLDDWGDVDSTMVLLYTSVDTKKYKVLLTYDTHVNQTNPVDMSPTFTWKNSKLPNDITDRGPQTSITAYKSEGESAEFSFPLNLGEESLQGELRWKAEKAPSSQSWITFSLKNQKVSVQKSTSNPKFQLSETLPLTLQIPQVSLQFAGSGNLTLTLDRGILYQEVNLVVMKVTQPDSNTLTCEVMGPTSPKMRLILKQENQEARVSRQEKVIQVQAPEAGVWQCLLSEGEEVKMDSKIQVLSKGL

B1: scFv A01 (scFv)
scFv: QVQLVQSGAEVKKPGASVKVSCKASGYTFTSYYMHWVRQAPGQGLEWMGIINPSGGSTSYAQEFQGRVTMTRDTSTSTVYMELSSLRSEDTAVYYCARDGQWLQFDYWGQGTLVTVSSGGGGSGGGGSGGGASDIVMTQSPLSLPVTLGQPASISCRSSQSLLKKSDGNTYLSWYHQRPGQSPRRLIYKVSNRDSGVPDRFSGSGSDTDFTLKISRVETEDVGIYYCMQGSHWPPTFGQGTKVEIK
In the case of B1, the Binding ELISA signal in assay [1] came out at 352.

B2: scFv B12 (scFv)
scFv: QVQLVESGGGLVKPGGSLRLSCAASGFTFSSYSMNWVRQAPGKGLEWVSVIYSGGSTHYADSVKGRFTISRHNSKNTLYLQMNSLRAEDTAVYYCARGAGTLNAFDIWGQGTTVTVSSGGGGSGGGGSGGGASQSGLTQPPSTSGSPGQSVTISCTGTSSDVGAYSYVSWYQQHPGKAPKLLIYAVTKRPSGVPDRFSGSKSGNTASLTVSGLQDEDEADYYCSSFAGGSTLVFGGGTKLTVL
On to B2, for which, in assay [1], the Binding ELISA signal came to 48.

B3: scFv B07 (scFv)
scFv: EVQLVQSGAEVKRPGSSVKVSCKASGYTFTSYYMHWVRQAPGQGLEWMGIINPSGGSTSYAQKFQGRVTMTRDTSTSTVYMELSSLRSEDTAVYYCAAGTYSSGWTIDYWGQGTTVTVSSGGGGSGGGGSGGGASDIVMTQSPLSLPVTLGQPASISCRSSQSLVYTDGNTYLNWFQQRPGQSPRRLIYKVSNRDSGVPDRFSGSGSGTDFTLKISRVEAEDVGIYYCMHSKQWPPTFGGGTKVEIK
The molecule B3 returned a Binding ELISA signal in assay [1] of 66.

B4: scFv B01 (scFv)
scFv: EVQLVQPGAEVKKPGSSVKVSCKASGGTLSSYAISWVRQAPGQGLEWMGRIIPILGITNYAQKFQGRVTITADKSTSTAYMELSSLRSEDTAVYFCARDQRPASMDVWGQGTLVTVSSGGGGSGGGGSGGGASQSGLTQPASVSGSPGQSITISCTGTSSDVGGYNYVSWYQQHPGKAPKLMIYEVSNRPSGVSNRFSGSKSGNTASLTISGLQAEDEADYYCSTVTSLSTYVFGTGTKLTVL
For B4, the Binding ELISA signal in assay [1] was 70.

B5: scFv A05 (scFv)
scFv: QVQLVQSGAEVKKPGSSVKVSCKASGGTFSSYTITWVRQAPGQGLEWMGRIIPVLGIANYAQKFQGRVTITADKSTSTAYMELSSLRSEDTAVYYCARDYSSSWNSMDVWGQGTLVTVSSGGGGSGGGGSGGGASQSGLTQPRSVSGSPGQSVTISCTGTSSDVGGYNYVSWYQQHPGKAPKLMIYDVSKRPSGVPDRFSGSKSGNTASLTVSGLHAEDEADYYCSSYAGSNNFVFGTGTKVTVL
Consider B5, for which the Binding ELISA signal in assay [2] stood at 89; in assay [1], 62.

B6: scFv A06 (scFv)
scFv: B5 scFv with S30G, T35S, V54I, G166A, D187E, G201A, H216Q, F234W, T238G, V242L
In the case of B6, the Binding ELISA signal in assay [1] is 80.

B7: scFv A03 (scFv)
scFv: QVQLVQSGAEVKKPGSSVKVSCKASGGTFSSYTISWVRQAPGQELEWMGRIIPILGIANYAQKFQGRVTITADKSTSTAYMELSSLRSEDTAVYYCARDYSSSWNSMDVWGQGTLVTVSSGGGGSGGGGSGGGASQSGLTQPPSASGSPGQSVTISCTGTSSDIGYYHYVSWYQQHPGKAPKLMIYEDSKRPSGISNRFSGSKSGTTASLTVSGLQAEDEAHYYCSSFTSRSTWVFGGGTQLTVL
The molecule B7 showed a Binding ELISA signal in assay [1] of 77.

B8: scFv A04 (scFv)
scFv: EVQLVQPGAEVKKPGSSVKVSCKASGGTLSSYAISWVRQAPGQGLEWMGRIIPILGITNYAQKFQGRVTITADKSTSTAYMELSSLRSEDTAVYFCARDQRPASMDVWGQGTLVTVSSGGGGSGGGGSGGGASQSELTQPASVSGSPGQSITISCTGTSSDVGGYIYVSWYQQHPGKVPKLMIHDVSHRPSGVSNRFSGSRSGNTASLTISGLQAEDEADYFCSSYTSSNNYYFGTGTKVTVL
Regarding B8, the Binding ELISA signal in assay [2] was 73; in assay [1] it was 66.

B9: scFv A02 (scFv)
scFv: B8 scFv with T227A, S228G, Y233V
Regarding B9, the figures for the Binding ELISA signal in assay [2] and in assay [1] were 60 and 74, respectively.

B10: scFv A12 (scFv)
scFv: B8 scFv with Y233V
In the case of B10, the Binding ELISA signal in assay [2] is 56; in assay [1], 53.

B11: scFv C02 (scFv)
scFv: QVQLVQSGAEVKKPGSSVKVSCKASGGTFSSYTISWVRQAPGQGLEWMGRIIPILGIANYAQKFQGRVTITADKSTSTAYMELSSLRSEDTAVYYCARDRSYNWLDPWGRGTLVTVSSGGGGSGGGGSGGGASQSALTQPVSVSGSPGQSITISCTGTISDVGDYNYVSWYQQHPGKAPKLMIYDVNNRPSGVSNRFSGSKSGNTASLTISGLQAEDEADYYCSSYTSSSTLVFGGGTKLTVL
B11: in assay [1], the Binding ELISA signal is 61.
